Holding throughout (settings): both partners purified
The target of assay [1] is T1, Phosphorylated 2N4R tau produced in SF9 cells (human, UniProt P10636-8 1-441, phosphorylated (hyperphosphorylated forms; intermediate tau phosphorylation state); sites not given).
T1 construct: also called 2N4R SF9; SF9 tau; source: SF9 cells (baculovirus), purified (boiled lysate, HisTrap)
Kind of assay: SPR; SORL1 VPS10 domain amine-coupled to a CM5 chip; tau in single cycle titrations (3.8-310 nM); 0.15 M NaCl, 0.05% Tween 20, 1 mM CaCl2 pH 7.4; equilibrium analysis (Req from a pseudo-first-order fit).

The target of assay [2] is T1, Phosphorylated 2N4R tau produced in SF9 …. In words: SPR; SORL1 VPS10 domain amine-coupled to a CM5 chip; tau in single cycle titrations (3.8-310 nM); 0.15 M NaCl, 0.05% Tween 20, 1 mM CaCl2 pH 7.4; kinetic analysis, 1:1 fit, KD calculated from the kinetic parameters.
Assay [3] has as its target T2, Recombinant human 2N4R tau (full-length tau), WT (human, UniProt P10636-8 1-441).
T2 construct: the His tag applies only to the in-house protein; The uptake assays used 125I-labeled R&D SP-495; also called monomeric tau; microtubule-associated protein tau; source: His-tagged, E. coli, purified, or bought: R&D Systems (SP-495)
The assay is described as above.

T2 sequence (P10636 other isoform, or with tags, fused parts or gaps): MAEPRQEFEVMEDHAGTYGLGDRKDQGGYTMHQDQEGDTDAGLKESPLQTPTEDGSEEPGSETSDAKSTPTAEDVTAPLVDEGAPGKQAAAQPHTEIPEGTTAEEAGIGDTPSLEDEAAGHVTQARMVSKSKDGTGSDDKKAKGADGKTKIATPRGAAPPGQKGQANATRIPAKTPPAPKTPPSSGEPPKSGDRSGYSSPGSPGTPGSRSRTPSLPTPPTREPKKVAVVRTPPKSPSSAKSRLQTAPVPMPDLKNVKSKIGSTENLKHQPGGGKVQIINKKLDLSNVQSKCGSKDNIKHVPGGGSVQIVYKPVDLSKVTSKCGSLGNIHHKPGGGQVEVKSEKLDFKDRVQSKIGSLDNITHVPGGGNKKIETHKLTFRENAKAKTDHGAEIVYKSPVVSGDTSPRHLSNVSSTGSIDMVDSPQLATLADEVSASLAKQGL
T1 sequence (P10636 other isoform, or with tags, fused parts or gaps): as above

B1: Recombinant human SORL1 VPS10 domain, aa 82 to 753 (domain or fragment, UniProt Q92673 82-753, looked up)
chain: SAALQPEPIKVYGQVSLNDSHNQMVVHWAGEKSNVIVALARDSLALARPKSSDVYVSYDYGKSFKKISDKLNFGLGNRSEAVIAQFYHSPADNKRYIFADAYAQYLWITFDFCNTLQGFSIPFRAADLLLHSKASNLLLGFDRSHPNKQLWKSDDFGQTWIMIQEHVKSFSWGIDPYDKPNTIYIERHEPSGYSTVFRSTDFFQSRENQEVILEEVRDFQLRDKYMFATKVVHLLGSEQQSSVQLWVSFGRKPMRAAQFVTRHPINEYYIADASEDQVFVCVSHSNNRTNLYISEAEGLKFSLSLENVLYYSPGGAGSDTLVRYFANEPFADFHRVEGLQGVYIATLINGSMNEENMRSVITFDKGGTWEFLQAPAFTGYGEKINCELSQGCSLHLAQRLSQLLNLQLRRMPILSKESAPGLIIATGSVGKNLASKTNVYISSSAGARWREALPGPHYYTWGDHGGIITAIAQGMETNELKYSTNEGETWKTFIFSEKPVFVYGLLTEPGEKSTVFTIFGSNKENVHSWLILQVNATDALGVPCTENDYKLWSPSDERGNECLLGHKTVFKRRTPHATCFNGEDFDRPVVVSNCSCTREDYECDFGFKMSEDLSLEVCVPDPEFSGKSYSPPVPCPVGSTYRRTRGYRKISGDTCSGGDVEARLEGELVPCP
notes: VPS10 domain of sortilin-related receptor 1 (SORL1), human, residues 82-753; also called vacuolar protein sorting 10 domain of SORL1; VPS10 peptide; source: bought: R&D Systems (9880-LA)
Consider B1, for which, in assay [1], the Kd (as a rule, the equilibrium constant for the complex coming apart) worked out at 95 nM. In addition, in assay [2], the Kd is 78 nM; the koff (in general, the rate constant with which the complex falls apart) was 0.0061 s⁻¹; the on-rate (kon) (commonly the rate constant with which the complex forms) is 85000 M⁻¹ s⁻¹. Also, in assay [3], the Kd is 15 nM, the dissociation rate constant (koff) is 0.41 s⁻¹ and the kon was 5e+07 M⁻¹ s⁻¹.

The record behind these values is publication PMC11145553, “SORL1 is a receptor for tau that promotes tau seeding” (The Journal of Biological Chemistry, 2024).
